Data taken from paper PMC7339825 (Nature structural & molecular biology, 2020).

B1: binary TSG101-VPS28 ESCRT-I head subcomplex, wild type (complex)
chain 1: QSENNDIDEVIIPTAPLYKQILNLYAEENAIEDTIFYLGEALRRGVIDLDVFLKHVRLLSRKQFQLRALMQKARKTAGLSD
chain 2: MFHGIPATPGIGAPGNKPELYEEVKLYKNAREREKYDNMAELFAVVKTMQALEKAYIKDCVSPSEYTAACSRLLVQYKAAFRQVQGSEISSIDEFCRKFRLDCPLAMERIKEDRPITIKDDK
B2: GST-TSG101 UEV domain (residues 2-145) (domain or fragment)
chain: AVSESQLKKMVSKYKYRDLTVRETVNVITLYKDLKPVLDSYVFNDGSSRELMNLTGTIPVPYRGNTYNIPICLWLLDTYPYNPPICFVKPTSSMTIKTGKHVDANGKIYLPYLHEWKHPQSDLLGLIQVMIVVFGDEPPVFSRP

Experiments:
SEC = target: the molecule itself; assay: SEC
[1] = target: B1; assay: pull-down

Binder | binding result (SEC) | binding result [1]
B1 | binds | 
B2 |  | binds
